Key:
[1] = target: T1, CD47 on the surfaces of cells (human, UniProt Q08722 19-323); assay: cell-based or functional assay
[2] = target: T1, CD47 on the surfaces of cells; assay: flow cytometry on Daudi cells, FITC anti-human Fc
Protocol: The binding capacity of the prepared SIRP-Fc-IgG1 mutants to CD47 on the surfaces of Daudi cells (human lymphoma cells) was determined by flow cytometry. Experimental procedure: After being counted, Daudi cells were inoculated into a 96-well round-bottom culture plate at 2E5 cells/150 μL by using a PBS solution containing 1% bovine serum albumin (BSA). To the 96-well plate described above were added 50 μL of SIRPα-Fc fusion protein mutants serially diluted with the PBS solution. The plate was incubated at room temperature for 1 h and then centrifuged, and the supernatant was discarded. Then the cells were washed twice with PBS. An FITC-labeled goat anti-human (Fc-Specific) antibody (1:1000 diluted with PBS containing 1% BSA) was added. The plate was incubated at room temperature for half an hour and centrifuged, and the cells were washed and then tested for mean fluorescence intensity (MFI) in the FITC channel on a flow cytometer (CytoFLEX Cytometer System, purchased from Beckman Coulter). The experimental data were processed using the software provided with the flow cytometer, and the mean fluorescence intensity was calculated. The data were analyzed and plotted in GraphPad Prism 6, and EC₅₀ was calculated.

[3] = target: T1, CD47 on the surfaces of cells; assay: cell-based or functional assay; remark: listed apart in the source
CD47-His [4] = target: T2, CD47-His (human, UniProt Q08722 19-139); assay: ELISA, plate coated with CD47-His, anti-human Fc-HRP detection
T2 construct: also called Human CD47-His; SIRPα-Fc fusion protein's ligand CD47-His
Protocol: Method: Human CD47-His prepared in Example 1.3 was diluted to 100 ng/mL with a sodium carbonate buffer, and then the dilution was added to a microplate at 100 μL per well. The plate was incubated at room temperature for 2 h and washed with PBST. The plate was blocked by adding PBST containing 1% bovine serum albumin (BSA) to each well and incubated at room temperature for 1 h. The plate was washed twice with PBST, and serially diluted antibodies or fusion proteins were added. The plate was incubated for half an hour and washed twice with PBST. A properly diluted HRP-labeled goat anti-human (Fc-Specific) secondary antibody was added, and the plate was incubated for half an hour. After the plate was washed, a color developing solution was added for color development, and the color development was terminated with a stop solution. The OD450 was read using on a microplate reader. The data were analyzed in GraphPad Prism 6 and plotted, and EC₅₀ was calculated.

CD47-His [5] = target: T2, CD47-His; assay: SPR (Biacore 8K), captured on Protein A chip, CD47-His as analyte
Protocol: Biacore is a method commonly used for molecular interaction analysis based on the principle of surface plasmon resonance (SPR for short). Here, Biacore was used to determine the affinity of the SIRP mutants described above and anti-CD47 antibodies for the extracellular end of CD47. Experimental method and procedure: The SIRP mutant or anti-CD47 antibodies were diluted to a concentration of 1 μg/mL with HBS-EP⁺ buffer (pH 7.4, purchased from Cytiva, catalog No. BR-1006-69). […] A 6 M solution of guanidine hydrochloride was used as a regeneration buffer. Sensor Chip Protein A (purchased from Cytiva, catalog No. 29-1275-55) was used to capture antibody on Biacore 8K (purchased from GE Healthcare). Then CD47-His was used as an analyte and allowed to flow over the chip, and an association-dissociation curve was obtained. After the chip was regenerated with the regeneration buffer, another cycle was carried out. The data were analyzed using Biacore 8K Evaluation Software.

B1: anti-CD47B-Hu-IgG1 (antibody, V domains shown)
VH: QVQLVQSGAEVKKPGASVKVSCKASGYTFANHVIHWVRQAPGQGLEWMGYIYPYNDGTKYNEKFKDRVTLTSDKSTSTVYMELSSLRSEDTAVYYCARGGYYTYDDWGQGTLVTVSS
VL: DVVMTQSPLSLPVTLGQPASISCRSSQSLVHSNGKTYLHWYQQRPGQSPRLLIYKVSNRFSGVPDRFSGSGSGTDFTLKISRVEAEDVGVYYCSQSTHVPYTFGQGTKVEIKR
notes: Human IgG1 / kappa
B1 was tested. Which “ADCP of Daudi cells by human macrophages, EC50” value [1] did it give?
Its value is 0.019 nM.

And the “ADCP of Daudi cells by human macrophages, Top (highest degree of ADCP by curve fitting)” value [1]?
The value was 12.5.

And the EC50 [2]?
The EC50 was 0.189 nM.

What about the “height of top plateau” value [2] of the same binder?
The value was 3070 MFI.

And the “ADCC on Daudi cells with human PBMCs, EC50” value [3]?
Its value is 0.197 nM.

What about the “ADCC on Daudi cells with human PBMCs, Top (highest degree of ADCC by curve fitting)” value [3] of the same binder?
The value was 29.

What about the EC50 (CD47-His [4]) of the same binder?
Its EC50 is 0.0558 nM.

And the “height of top plateau” value (CD47-His [4])?
Its value is 0.795 OD450.

What about the Kd (CD47-His [5]) of the same binder?
The Kd was 0.104 nM.

And the koff (CD47-His [5])?
The koff was 0.00012 s⁻¹.

And the kon (CD47-His [5])?
The kon was 1.16e+06 M⁻¹ s⁻¹.

Source: patent US20230312682A1 (published 2023)
